In the nanobody polyreactivity screen of Harvey et al. (2022):

Test: yeast display, Sf9 membrane polyspecificity reagent, FACS + sequencing; frameworks hold sequencing errors
Method in brief: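 After 36–48 hours of galactose induction, yeast (Saccharomyces cerevisiae BJ5465) displaying a synthetic nanobody library were stained at 4 °C for 1 hour with 10% biotinylated, detergent-solubilized Sf9 membrane reagent. Streptavidin microbeads enriched the stained cells before FACS sorting into low and high (top ~1%) gates on anti-HA and streptavidin fluorescence. Each clone's polyreactivity label reflects its gate of origin.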

Row | Sequence | polyreactivity (PSR sort gate)
1 | QVQLVESGGALVQARGSLRLSSAASGSIFPFYAMPSYRQAPGKERELVAAISDRGGSTYYADSVKGRFTISRDNAKNTVYLQMNSLKPEDTAVYYCAVDGYGWGSSSSWFRSLYDYWGQGTQVTVSS | low polyreactivity
2 | QVQLVESGGALVQEGGSLRLSCAASGITFAGNAMGWYRQAPGKERELVATITSDGNTNYAVSVKGRFTISRDNAKNTVYLQMNSLKPEDTAVYYCNAEGENRRDRYDYWGQGTQVTVSS | low polyreactivity
3 | QVQLVESGGCLDQAGGSLRLSCAASGRIFDHYAMGWYRQAPGKEMELVAAITRSGGITYYADSVKGRFTISRDNAKNTVYLQMNSLKPEDTAVYYCAALSYRYTDKFDYWGQGTQVTVSS | low polyreactivity
4 | QVQLVESGGCLDQAGGSLRLSCAASGSIFYYYTMGWSRQAPGKEREFVATITYSGGSTYYADSVKGRITISRDNAKYTVYLQMNSLKPEDTAVYYCNARPRYYDWVDYWGQGTQVTVSS | low polyreactivity
5 | QVQLVESGGCLFQAGGSLRLICAASGSISGLYAIGWYRQAPGKERELVARIRWRGDSTYYADSVKGRFTISRDNAKNTVYLQMNSLKPEDTAVYYCAASAYSGKVNKYNYWGQGTQVTVSS | high polyreactivity
6 | QVQLVESGGCLIKEVGSLRLSCAASGNIFVFYGKGWYRQAPGKERELVAAIDSGGSSTYYADSVKGRFTISRDNAKNTVYLKMKSLKPEDTAFDYCSARPYYSWNYDYWGQGTQVTVSS | low polyreactivity
7 | QVQLVESGGCLLQAGATLRLSCASSGSIFNGKAMGWYRQAPGKERELVAANTWSGGSTYYADSVKGRFTISRDNAKNSVYLQMNSLKPEDTAVYYCNTYTYRGYDYWGQGTQVTVSS | high polyreactivity
8 | QVQLVESGGCLVQAGCSLRLSCAASGSTFYSYAMGWYRQAPGKERELVAAINWDGVSTYYADSVKGRFTISRDNAKNTVYLQMNSMKPEDTAVYFCAAELFYGYRISGTYYYWGQGTQVTVSS | low polyreactivity
9 | QVQLVESGGCLVQAGGSIRLSFAASGSISIRNAMGWYRQAPGTERELVAAISRGGSTYYADSVKGRFTISRDNAKNTVYLQMNSLNPEDTAVYYFATDGGLYYRGREYAFKYFYWGQGTQLTVSS | high polyreactivity
10 | QVQLVESGGCLVQAGGSLRLCCAASGSTFDSNAMGSYRQAPGIERELVAAISSDGSTTYADSVKGRFTISRDNAMNTVYLQMNSLKPEDTAVYYCEYYYWGQGTQVSVSS | low polyreactivity
11 | QVQLVESGGCLVQAGGSLRLICAASGRIIDRNAMGWYRHAPGKERELVAAISSSGSTYYADSVKGRFTISRDNAKITVYLQMNSLKPEDTAVYYCNKRARHSGDFVWGHGYWGQGTQVNVSS | low polyreactivity
12 | QVQLVESGGCLVQAGGSLRLICAASGRIVKYAMGWYRQAPGKERELVAAISGSGGTTYYADSVKGRFTISRDNAKNTVYLQMNSLKPEDTAVYYCAASRPRPPSSRRMDYWGQGTQVTVSS | high polyreactivity
13 | QVQLVESGGCLVQAGGSLRLSCAASGFIFAYNAMGWYRQAPGKERELDAAISWSGGSTYYADSVKGRFTISRDNAKNTVYLQMNSLKPEDTAVYYCNKYIRYPFKRYGYWGQGTQVTVSS | high polyreactivity
14 | QVQLVESGGCLVQAGGSLRLSCAASGFIFNKYAMGWSRQATGKERELVAAISFRGGRTYYADSVKGRFTISRDNAKNTVYFQMNSLKPEDTAVYYCAAETRDYSEGYYWGQGTQVTVSS | high polyreactivity
15 | QVQLVESGGCLVQAGGSLRLSCAASGFIFSTNAMAWYRQARGTERELVAAITGRGTNTYYADSVKGRFTISRDNAKNTVYLQMNSLKPEDTAVYYCAADGGSYSDYDYWGLGTQVTVSS | high polyreactivity
16 | QVQLVESGGCLVQAGGSLRLSCAASGFTFRRYTMGWSRQAPGKDRELVAAISGRGGRTYYADSVKGRFTISRDNAKNTVYLQMNSLQPQDTAVYYSAADTPYWQSSKYDYWGQGTQVTVSS | high polyreactivity
17 | QVQLVESGGCLVQAGGSLRLSCAASGFTFSNYAMGWYRQPPGKESEFVAAISGTGGSTYYADSVKGRFTISRVNAKNTVYLQMNSLKPEDTAVYYCARRRTYPPGRYYYWGQGTQVTVSS | high polyreactivity
18 | QVQLVESGGCLVQAGGSLRLSCAASGFTFVGYAMGWYRQAPGKERELVAAITSSGGSTYYADSVKGRFTISRDNAKNTVYLQMNSLKPEDTAVYYCAAPAPVLSTQKRFDSWGQGTQVTVSS | low polyreactivity
19 | QVQLVESGGCLVQAGGSLRLSCAASGFTFYGYAMAWYRQAPGKERELVAYISWSGGTTYYADSVKGRFTISRDNAKNTVYLQMNSLKPEDTAVYYCNAVRYRYGVFPYYYWGQGTQVTVSS | high polyreactivity
20 | QVQLVESGGCLVQAGGSLRLSCAASGGTFGPNAKGSYRQAPGKERELVAAISWTTGRTYADSVKGRFTISRDNAKNTVYLQMNSLKPEDTAVYYCATRAYRLDPLQHDYWGQGTQVTVSS | low polyreactivity
21 | QVQLVESGGCLVQAGGSLRLSCAASGIIFSGYAMGWYRQAPGKERELVAAISSRGGGPYYADSVKGRFTISRDNAKKTVYLQMNSLKPEDTAVYYCNRVAFTYNYWGQGTQVTVTS | high polyreactivity
22 | QVQLVESGGCLVQAGGSLRLSCAASGIIFTYYAMGWYRQAPGKERELVARISSSGGRTYYADSVKGRFTISRDNAKNTVYLQMNSLKPEDTAVYYCAARVFSRPPQPGSPRGYRGFDYWGQGTQVTVSS | high polyreactivity

Row | Sequence | polyreactivity (PSR sort gate)
23 | QVQLVESGGCLVQAGGSLRLSCAASGITFESNAMGWYRQAPGIEREFVAAISYDGGDTYYADSVKGRFTISRDNAKNTVYLEMTSLKTEDTAVFYCAAEPGWTMDYWGQGTQVTVSS | low polyreactivity
24 | QVQLVESGGCLVQAGGSLRLSCAASGITFYVYAMGWYRQAPGKESELVASITSGGGSTDYADSVKGRVTISRDNAKNTVYLQMNSLKPEDTAVYYCAARYPLLNQLYDFDYWGQGTQVTVSS | low polyreactivity
25 | QVQLVESGGCLVQAGGSLRLSCAASGITITANAMGWYRQAPRKERELVAAITWSGGSTYYADSVKGRFTISRDNAKNTVYLQMNSLKPEETAVYYCNAEGIGDREYDYWGQGTQVTVSS | low polyreactivity
26 | QVQLVESGGCLVQAGGSLRLSCAASGLIFGDYAMGWYRPAPGKESELVAAITGSFTRTYYADSVKGSFTISRDNAKNTVYLQMNSLKPEDTAVYYCAADWYKRPPYVYWGQGTQVTLSS | low polyreactivity
27 | QVQLVESGGCLVQAGGSLRLSCAASGLIFGRNVMGWYRQAPGKERELVAAISWSGGRTYYADSVKGRFSISRDNAKNTVYLQMNSLKPEDTAVYYCNARYSRVWYGCDYWGQGTQVTVSS | high polyreactivity
28 | QVQLVESGGCLVQAGGSLRLSCAASGLTFIVYAMGWYRQAPGKERELVADITWSGGSTYYADSVKGRYTISRDNAKITVYLQMNSLKPVDTAVYYCNRQSAKIMDYWGQGTQVNVSS | low polyreactivity
29 | QVQLVESGGCLVQAGGSLRLSCAASGNTFPYYDMGWYRQAPGKERELVAVIRTGDDTNYADSVKGRFTISRDNAKNTVYLQMNSLKPEDTAVYYCAVVGPKGADGLPPYNRMDYWGHGTQVTVSS | low polyreactivity
30 | QVQLVESGGCLVQAGGSLRLSCAASGNTFVDYAMGWYRQAPGKERELGAAIDQTGGSTYYADSVKGRFTISRDNAKNTVYLQMNSLKPVDTAVYYCASDLSDRKDLYPRWYDYWGQGSQVTVSS | low polyreactivity
31 | QVQLVESGGCLVQAGGSLRLSCAASGNTLRTYGMGWYRQAPGKESEFVAAITYSGGSTYYADSVKGRFTISRDNAKNTVYLQMNSLKPEDTAVYYCAARYRSHYRRITPYDSWGQGTQVTVSS | high polyreactivity
32 | QVQLVESGGCLVQAGGSLRLSCAASGRIFHQNTMGWYRQAPGKERELVAAISATGGGTNYADSVKGRFTISRDNAKNTVYLQMNSLKPEDTAVYYCAVRPKTSWYSWYYWGQGTQVTVSS | low polyreactivity
33 | QVQLVESGGCLVQAGGSLRLSCAASGRIFQYYTMGWYRQAPAKERELVAAITYSGGDTRYADSVKGRFTISRDNAKNTVYLQMNSLKPEDTAVYYCAADYFDQYQYGVWTYGYWGQGTQVTVSS | low polyreactivity
34 | QVQLVESGGCLVQAGGSLRLSCAASGRIFYGNTMGCYRQAPGKESELVATITRSGGSTYYADSVKGRFTISRDNAKNTVYLQMNNLKPEDTAVYYCAVGYWRLFPYGYWGQGTQVTVSS | high polyreactivity
35 | QVQLVESGGCLVQAGGSLRLSCAASGRIVYPYAMGWYRQAPGKERELVAAISSSGGSTYYADSVKGRFTISRDNAKNTVYLQMNSLKPDDTAVYYCAAQEFQKRLGGSWCRYDYWGQGTQVNVSS | high polyreactivity
36 | QVQLVESGGCLVQAGGSLRLSCAASGRTFAWYAMGWYRQAPGKERELVAAISSGGSTYYADSVKGRFTISRDNAKNTVYLQMDSLKPEDTAVYYCAAEWHYIYAYDYWGQGTQVTVSS | low polyreactivity
37 | QVQLVESGGCLVQAGGSLRLSCAASGRTFAWYAMGWYRQAPGKERELVAAITNGGSTYYADSVKGRFTISRDNAKNTVYLQMNSLKPDDTAVYYCAAYYRSRHHGYDSWGQGTQVTVSS | low polyreactivity
38 | QVQLVESGGCLVQAGGSLRLSCAASGRTFAYYAMGWYRQAPGKERELVAAITRGGSTYYADSVKGRFTISRDNAKNTVYLQMNSLKPEDTAVYYCAADTSPYQDDYWGQGTQVTVSS | low polyreactivity
39 | QVQLVESGGCLVQAGGSLRLSCAASGRTFDINDMGWYRQAPGKEREFVAAIDRSGGNTYYADSVKGRFIISRDNAKNTVYLQMNSLKPEDTAVYYCAADSPYVVAWPYVWYFTFDYWGQGTQVTVTS | low polyreactivity
40 | QVQLVESGGCLVQAGGSLRLSCAASGRTFNRYAMGWYRQAPGKERELVAAITRRGGSTYYADSVKGRFTISRDNAKNTVYLQMNSLKPEDTAVYYCATDTYYSDYGSWGQGTQVTVSS | high polyreactivity
41 | QVQLVESGGCLVQAGGSLRLSCAASGRTFPLYAMGWYRQAPGKERELVASITNGGNTNYADSVKGRFTISRDNEKNTVYLQMNSLKPEDTAVYYCAAQTFGYGFGGGDYWGQGTQVTVSS | low polyreactivity
42 | QVQLVESGGCLVQAGGSLRLSCAASGRTFRHYGMGWYRPAPRKERELVAAISRSGGRTYYADSVKGRFTISRDNAKNTVYLQMNSLKPEDTAVYYCNAPYDVTTYAFDYWGQGTQVTVSS | high polyreactivity
43 | QVQLVESGGCLVQAGGSLRLSCAASGRTFYFYAMGWYRQAPGKERELVASISWSGGRTNYADSVKGRFTSSRDNAKNTVYLQMNSLKPEDTAVHYCAARYVERHTDYYYWGQGTQVTVSS | low polyreactivity
